Positions count from the first letter of the chain named.
How the values were obtained:
[1] = biological target: T1, MAEL HMG-box (Mus musculus, UniProt Q8BVN9 2-86); assay: EMSA; 10 mM potassium phosphate pH 7.5, 50 mM KCl, 5% glycerol, 1 mM TCEP, 0.1 mg/ml BSA, 2.5 mM MgCl2, ~1 nM substrate, room temperature 30-60 min; native PAGE in ice bath; conditions: protein: recombinant, tags: GST removed by PreScission (pGex6P2), label: 5' 32P
T1 sequence: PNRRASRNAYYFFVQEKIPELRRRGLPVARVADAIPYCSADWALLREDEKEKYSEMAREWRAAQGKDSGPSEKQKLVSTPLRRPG

[2] = biological target: T1, MAEL HMG-box; assay: EMSA; no appreciable binding; 10 mM potassium phosphate pH 7.5, 50 mM KCl, 5% glycerol, 1 mM TCEP, 0.1 mg/ml BSA, 2.5 mM MgCl2, ~1 nM substrate, room temperature 30-60 min; native PAGE in ice bath; conditions: protein: recombinant; tags: GST removed by PreScission (pGex6P2); label: 5' 32P; folded
[3] = biological target: T1, MAEL HMG-box; assay: EMSA; complex from 0.5 uM protein; cooperative; fully bound; 10 mM potassium phosphate pH 7.5, 50 mM KCl, 5% glycerol, 1 mM TCEP, 0.1 mg/ml BSA, 2.5 mM MgCl2, ~1 nM substrate, room temperature 30-60 min; native PAGE in ice bath; conditions: protein: recombinant; tags: GST removed by PreScission (pGex6P2); label: 5' 32P; folded
[4] = biological target: T2, MAEL HMG-box R8A (Mus musculus, UniProt Q8BVN9 2-86, R8A); assay: EMSA; 10 mM potassium phosphate pH 7.5, 50 mM KCl, 5% glycerol, 1 mM TCEP, 0.1 mg/ml BSA, 2.5 mM MgCl2, ~1 nM substrate, room temperature 30-60 min; native PAGE in ice bath; conditions: protein: recombinant; tags: GST removed by PreScission (pGex6P2); label: 5' 32P; four-way junction of 4 strands
T2 sequence: T1 sequence with R7A

[5] = biological target: T1, MAEL HMG-box; assay: EMSA; 2.5 mM Mg2+; binding incomplete; 10 mM potassium phosphate pH 7.5, 50 mM KCl, 5% glycerol, 1 mM TCEP, 0.1 mg/ml BSA, 2.5 mM MgCl2, ~1 nM substrate, room temperature 30-60 min; native PAGE in ice bath; conditions: protein: recombinant; tags: GST removed by PreScission (pGex6P2); label: 5' 32P; four-way junction of 4 strands
[6] = biological target: T3, HMGB1a (HMGB1 box A) (Mus musculus, UniProt P63158 2-86); assay: EMSA; multiple intermediate complexes; 10 mM potassium phosphate pH 7.5, 50 mM KCl, 5% glycerol, 1 mM TCEP, 0.1 mg/ml BSA, 2.5 mM MgCl2, ~1 nM substrate, room temperature 30-60 min; native PAGE in ice bath; conditions: protein: recombinant; tags: GST removed by PreScission (pGex6P2); label: 5' 32P; four-way junction of 4 strands
T3 sequence: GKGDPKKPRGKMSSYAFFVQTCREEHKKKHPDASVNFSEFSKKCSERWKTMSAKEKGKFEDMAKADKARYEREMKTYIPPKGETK

[7] = biological target: T3, HMGB1a (HMGB1 box A); assay: EMSA; 10 mM potassium phosphate pH 7.5, 50 mM KCl, 5% glycerol, 1 mM TCEP, 0.1 mg/ml BSA, 2.5 mM MgCl2, ~1 nM substrate, room temperature 30-60 min; native PAGE in ice bath; conditions: protein: recombinant; tags: GST removed by PreScission (pGex6P2); label: 5' 32P; blunt
[8] = biological target: T4, SRY HMG-box (Mus musculus (129S4), UniProt Q05738 2-86); assay: EMSA; 2.5 mM Mg2+; average of titration and cold competition; 10 mM potassium phosphate pH 7.5, 50 mM KCl, 5% glycerol, 1 mM TCEP, 0.1 mg/ml BSA, 2.5 mM MgCl2, ~1 nM substrate, room temperature 30-60 min; native PAGE in ice bath; conditions: protein: recombinant; tags: GST removed by PreScission (pGex6P2); label: 5' 32P; blunt
[9] = biological target: T5, MAEL HMG-box R23A (Mus musculus, UniProt Q8BVN9 2-86, R23A); assay: EMSA; 10 mM potassium phosphate pH 7.5, 50 mM KCl, 5% glycerol, 1 mM TCEP, 0.1 mg/ml BSA, 2.5 mM MgCl2, ~1 nM substrate, room temperature 30-60 min; native PAGE in ice bath; conditions: protein: recombinant; tags: GST removed by PreScission (pGex6P2); label: 5' 32P; four-way junction of 4 strands
T5 sequence: T1 sequence with R22A

[10] = biological target: T6, MAEL HMG-box R31A (Mus musculus, UniProt Q8BVN9 2-86, R31A); assay: as above; conditions: protein: recombinant; tags: GST removed by PreScission (pGex6P2); label: 5' 32P; four-way junction of 4 strands
T6 sequence: T1 sequence with R30A

[11] = biological target: T7, MAEL HMG-box R25A (Mus musculus, UniProt Q8BVN9 2-86, R25A); assay: as above; conditions: protein: recombinant; tags: GST removed by PreScission (pGex6P2); label: 5' 32P; four-way junction of 4 strands
T7 sequence: T1 sequence with R24A

[12] = biological target: T4, SRY HMG-box; assay: EMSA; five complexes; 10 mM potassium phosphate pH 7.5, 50 mM KCl, 5% glycerol, 1 mM TCEP, 0.1 mg/ml BSA, 2.5 mM MgCl2, ~1 nM substrate, room temperature 30-60 min; native PAGE in ice bath; conditions: protein: recombinant; tags: GST removed by PreScission (pGex6P2); label: 5' 32P; four-way junction of 4 strands
[13] = biological target: T3, HMGB1a (HMGB1 box A); assay: EMSA; two complexes; 10 mM potassium phosphate pH 7.5, 50 mM KCl, 5% glycerol, 1 mM TCEP, 0.1 mg/ml BSA, 2.5 mM MgCl2, ~1 nM substrate, room temperature 30-60 min; native PAGE in ice bath; conditions: protein: recombinant; tags: GST removed by PreScission (pGex6P2); label: 5' 32P; four-way junction of 4 strands
[14] = biological target: T8, MAEL HMG-box Q16A (Mus musculus, UniProt Q8BVN9 2-86, Q16A); assay: EMSA; same as wild type; 10 mM potassium phosphate pH 7.5, 50 mM KCl, 5% glycerol, 1 mM TCEP, 0.1 mg/ml BSA, 2.5 mM MgCl2, ~1 nM substrate, room temperature 30-60 min; native PAGE in ice bath; conditions: protein: recombinant; tags: GST removed by PreScission (pGex6P2); label: 5' 32P; four-way junction of 4 strands
T8 sequence: T1 sequence with Q15A

T4 sequence (Q05738 2-86): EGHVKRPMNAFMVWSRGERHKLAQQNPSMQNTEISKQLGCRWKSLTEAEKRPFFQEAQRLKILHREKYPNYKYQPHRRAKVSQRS

B1: ssRNA (ssRNA)
RNA: GGGAAAGGGUUAGGGUUAGGGUUAGGGAA
- binding result [1]: no binding

B2: methylated dsDNA 16 bp (dsDNA)
DNA 1: CAGTCGACGTCGTGAC
DNA 2: GTCACGACGTCGACTG
modifications: 5-methyl-dC at position 8 of each strand
- binding result ([1]; blunt): no binding

B3: chr2 noPeak 177-nt RNA (structured_RNA)
RNA: GGGGGGGAUGAAAAAUUCAUCUAAUUUAGUACAAUGUAAAUAUAAAGAGUUUGGAAAUUUUUGAAAACUUGAGGUCAUGUUAAAAAAGCAACAACUCUCCUUUUAGAUUGUCCUAUUUGUGUCUUGAAAUUCCUAUGCUGUUCUAAACCCAUUUGGUAUGUAUGCUCCUGCCCAAAC
- binding result [2]: no binding

B4: L1_Md_F2 277-nt RNA (structured_RNA)
RNA: GGGUUCUGGCUAUUAUAAAUAAGGCUGCUAUGAACAUAGUGGAGCAUGUGUCCUUCUUACCGGUUGGGGCAUCUUCUGGAUAUAUGCCCAGGAGAGGUAUUGCUGGAUCCUCCGGUAGUACUAUGUCCAAUUUUCUGAGGAACCACCAGACUGAUUUCCAGAGUGGUUGUACAGCUUGCAAUCCCACCAGCAAUGAAGGCGUGUUCCUCUUUCUCCACAUCCACGCCAGCAUCUGCUGUCACCUGAAUUUUUGAUCUUAGCCAUUCUGACUGGUGUG
- binding result [3]: binds

B5: RNA hairpin 1 (structured_RNA)
RNA: GCGCAACAAUGCCGG
- binding result ([1]; hairpin): no binding

B6: RNA 4WJ (structured_RNA)
RNA 1: CCGACAGGACUGUCAACCAGGUAAUAUACCACUUGCGG
RNA 2: CCGCAAGUGGUAUAUUACCUGGUACGCGUUCACGG
RNA 3: CCGUGAACGCGUGGUGCGAAUCGG
RNA 4: CCGAUUCGCACCUGACAGUCCUGUCGG
modifications: 5'-terminal dC and 3'-terminal dG on each strand
- binding result [4]: no binding
- Kd [5]: 638 nM
- binding result [6]: binds

B7: dsDNA-SRY 15 bp (dsDNA)
DNA 1: GCGCAACAATGCCGG
DNA 2: CCGGCATTGTTGCGC
- binding result [7]: no binding
- binding result ([1]; blunt): no binding
- Kd [8]: ~12 nM

B8: RNA hairpin 2 (structured_RNA)
RNA: GGGACCAGAAGGUCCCG
- binding result ([1]; hairpin): no binding

B9: ssDNA (25-nt) (ssDNA)
DNA: AAAGGGTTAGGGTTAGGGTTAGGGAA
- binding result [1]: no binding

B10: DNA 4WJ (structured_DNA)
DNA 1: CCGACAGGACTGTCAACCAGGTAATATACCACTTGCGG
DNA 2: CCGCAAGTGGTATATTACCTGGTACGCGTTCACGG
DNA 3: CCGTGAACGCGTGGTGCGAATCGG
DNA 4: CCGATTCGCACCTGACAGTCCTGTCGG
- binding result [9]: no binding
- binding result [10]: no binding
- binding result [4]: no binding
- binding result [11]: no binding
- binding result [12]: binds
- binding result [13]: binds
- binding result [14]: binds

— publication PMC4373776, “A Unique HMG-Box Domain of Mouse Maelstrom Binds Structured RNA but Not Double Stranded DNA”
